Increase of Tm with 500 μM Tyr–Asp, decrease of Tm with 25 μM Tyr–Asp and decrease of Tm with 50 μM Tyr–Asp data for 1 substance are collected here from paper PMC6093232, “PROMIS, global analysis of PROtein–metabolite interactions using size separation in Arabidopsis thaliana” (The Journal of Biological Chemistry, 2018).

For assay [1], the target named is human recombinant GAPDH protein (human) (UniProt P04406). As to the kind of experiment: nano-DSF (thermal shift, Prometheus NT.48); human GAPDH 1 μM with 500 μM dipeptide in 10 mM Tris-HCl pH 7.5, 0.5 M NaCl; thermal ramp 2 °C/min, 20–90 °C; Tm from F350/F330. On the technique in general: Differential scanning fluorimetry follows unfolding on heating by fluorescence.

Assay [2] addresses His6-GAPCP1 (A. thaliana) (UniProt Q9SAJ6). Description: nano-DSF (thermal shift, Prometheus NT.48); plant GAPCs 0.2–0.25 mg/ml with 25 μM (GAPC1/2, GAPCP1) or 50 μM (GAPCP2) dipeptide in 1× PBS; thermal ramp 2 °C/min, 20–90 °C; Tm from F350/F330.
The target of assay [3] is His6-GAPCP2 (A. thaliana) (UniProt Q5E924). The description is as above.
Sequence of His6-GAPCP2 (A. thaliana) (Q5E924 67-420): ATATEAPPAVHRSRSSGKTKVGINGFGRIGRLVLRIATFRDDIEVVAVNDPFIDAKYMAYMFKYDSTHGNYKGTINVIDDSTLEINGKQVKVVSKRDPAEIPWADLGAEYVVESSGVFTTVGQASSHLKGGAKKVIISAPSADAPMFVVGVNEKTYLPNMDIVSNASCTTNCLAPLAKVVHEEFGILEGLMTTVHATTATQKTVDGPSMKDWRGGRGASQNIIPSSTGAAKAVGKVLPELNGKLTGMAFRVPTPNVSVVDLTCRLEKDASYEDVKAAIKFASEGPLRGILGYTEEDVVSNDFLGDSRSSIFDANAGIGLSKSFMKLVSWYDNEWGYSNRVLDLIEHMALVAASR

Sequence of His6-GAPCP1 (A. thaliana) (Q9SAJ6 70-422): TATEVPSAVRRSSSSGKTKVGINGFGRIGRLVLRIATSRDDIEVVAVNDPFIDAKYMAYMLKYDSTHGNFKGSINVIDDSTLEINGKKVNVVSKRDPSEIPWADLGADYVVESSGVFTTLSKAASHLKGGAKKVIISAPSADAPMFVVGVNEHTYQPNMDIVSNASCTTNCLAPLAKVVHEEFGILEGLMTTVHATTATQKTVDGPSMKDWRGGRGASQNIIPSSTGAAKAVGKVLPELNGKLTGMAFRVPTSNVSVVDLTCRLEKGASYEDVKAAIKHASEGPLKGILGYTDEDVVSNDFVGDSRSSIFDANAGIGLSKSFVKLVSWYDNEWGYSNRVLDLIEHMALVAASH
Sequence of human recombinant GAPDH protein (human) (P04406 whole entry): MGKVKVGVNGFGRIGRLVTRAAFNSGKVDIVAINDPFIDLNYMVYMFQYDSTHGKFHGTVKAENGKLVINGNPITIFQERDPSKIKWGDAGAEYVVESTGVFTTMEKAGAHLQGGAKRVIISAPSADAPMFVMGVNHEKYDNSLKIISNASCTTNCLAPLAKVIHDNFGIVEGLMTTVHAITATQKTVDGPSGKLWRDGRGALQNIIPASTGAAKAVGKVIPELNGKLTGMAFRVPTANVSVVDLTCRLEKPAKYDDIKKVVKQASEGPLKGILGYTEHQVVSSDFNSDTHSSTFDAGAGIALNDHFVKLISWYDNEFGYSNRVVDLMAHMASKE

For the substance dipeptide Tyr–Asp, the increase of Tm with 500 μM Tyr–Asp in assay [1] amounted to 1.1 °C. In addition, in assay [2], the decrease of Tm with 25 μM Tyr–Asp turned out to be 2 °C. In assay [3], the decrease of Tm with 50 μM Tyr–Asp worked out at 1.5 °C.
